Results taken from patent publication US20170119861.

Experiments:
[1] = target: Aβ42 oligomers (UniProt P05067)
[2] = target: synthetic Aβ42 peptide (UniProt P05067)
[3] = target: Aβ42 fibrils (UniProt P05067)
[4] = target: protective protein/cathepsin A (PPCA) (UniProt P10619)
Sequence of protective protein/cathepsin A (PPCA) (P10619 29-480): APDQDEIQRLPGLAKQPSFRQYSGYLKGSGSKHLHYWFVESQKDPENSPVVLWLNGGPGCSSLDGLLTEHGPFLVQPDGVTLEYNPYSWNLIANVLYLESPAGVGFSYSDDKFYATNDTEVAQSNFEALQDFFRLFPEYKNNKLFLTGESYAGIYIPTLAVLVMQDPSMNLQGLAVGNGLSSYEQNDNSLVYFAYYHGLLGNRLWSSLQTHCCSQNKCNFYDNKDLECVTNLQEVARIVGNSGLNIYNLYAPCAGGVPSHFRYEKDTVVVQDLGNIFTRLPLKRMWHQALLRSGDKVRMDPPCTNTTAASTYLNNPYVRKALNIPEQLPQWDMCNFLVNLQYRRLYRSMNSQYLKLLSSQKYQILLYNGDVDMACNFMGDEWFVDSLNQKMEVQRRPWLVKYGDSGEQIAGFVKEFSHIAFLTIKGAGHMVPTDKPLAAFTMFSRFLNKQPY

Sequence of cathepsin D (chain, as listed by the source): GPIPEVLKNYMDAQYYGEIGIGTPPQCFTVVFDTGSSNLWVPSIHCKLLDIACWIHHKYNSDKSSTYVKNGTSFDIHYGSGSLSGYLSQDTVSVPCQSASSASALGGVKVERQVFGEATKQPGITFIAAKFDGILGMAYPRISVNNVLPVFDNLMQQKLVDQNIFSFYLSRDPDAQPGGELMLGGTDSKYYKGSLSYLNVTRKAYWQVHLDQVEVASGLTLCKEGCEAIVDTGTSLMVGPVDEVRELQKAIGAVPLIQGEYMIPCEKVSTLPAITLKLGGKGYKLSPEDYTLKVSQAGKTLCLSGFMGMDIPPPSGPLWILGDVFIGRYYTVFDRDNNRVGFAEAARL
Sequence of Aβ42 oligomers (P05067 whole entry, looked up): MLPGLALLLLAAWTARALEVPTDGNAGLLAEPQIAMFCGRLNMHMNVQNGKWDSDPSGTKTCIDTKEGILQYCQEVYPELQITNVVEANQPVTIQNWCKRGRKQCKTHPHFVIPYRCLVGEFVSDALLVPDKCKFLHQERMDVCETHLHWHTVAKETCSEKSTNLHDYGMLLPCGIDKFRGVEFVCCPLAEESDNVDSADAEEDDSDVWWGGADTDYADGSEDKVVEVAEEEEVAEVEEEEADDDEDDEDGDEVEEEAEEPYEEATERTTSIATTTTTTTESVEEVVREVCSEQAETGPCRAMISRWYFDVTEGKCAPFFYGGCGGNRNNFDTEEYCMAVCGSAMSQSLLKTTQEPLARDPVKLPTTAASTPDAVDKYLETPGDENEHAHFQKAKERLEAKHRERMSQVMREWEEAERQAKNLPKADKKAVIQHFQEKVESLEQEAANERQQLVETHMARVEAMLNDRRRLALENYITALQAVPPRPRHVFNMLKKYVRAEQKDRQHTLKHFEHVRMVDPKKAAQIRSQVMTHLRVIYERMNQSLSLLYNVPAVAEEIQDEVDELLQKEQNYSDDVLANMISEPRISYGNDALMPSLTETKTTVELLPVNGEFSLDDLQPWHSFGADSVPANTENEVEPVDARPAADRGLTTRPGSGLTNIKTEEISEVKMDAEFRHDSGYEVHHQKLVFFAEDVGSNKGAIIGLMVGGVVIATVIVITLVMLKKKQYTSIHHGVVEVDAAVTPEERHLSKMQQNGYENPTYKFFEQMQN
Sequence of synthetic Aβ42 peptide (P05067 whole entry, looked up, tested part not stated): as the sequence (P05067 whole entry, looked up) above
Sequence of Aβ42 fibrils (P05067 whole entry, looked up): as above
Sequence of cathepsin L (chain, as listed by the source): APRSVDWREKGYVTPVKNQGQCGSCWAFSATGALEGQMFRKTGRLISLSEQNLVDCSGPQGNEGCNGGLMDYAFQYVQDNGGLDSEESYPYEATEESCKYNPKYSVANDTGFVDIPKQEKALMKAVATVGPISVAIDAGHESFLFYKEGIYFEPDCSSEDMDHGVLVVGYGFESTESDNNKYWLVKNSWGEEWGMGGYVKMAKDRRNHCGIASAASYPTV

Row | Substance | western blot (A11) of day 9 Aβ42 oligomers after overnight treatment with 90 ng enzyme [1] | western blot of Aβ42 treated with cathepsin B [2] | western blot (E610) of day 9 Aβ42 fibrils after overnight treatment with 90 ng enzyme [3] | THT assay and western blot of Aβ42 treated with cathepsin D [2] | activation of cathepsin A (enzyme activity) [4]
1 | cathepsin B | did not reveal changes in intensity or size of oligomer band (lines 5, 6) | cathepsin B prevents aggregation of low molecular weight Aβ42 species and degrades Aβ42 monomers in a time dependent manner | resulted in weak reduction/degradation of the fibril smear (line 5 compared to line 2) | – | –
2 | cathepsin D | did not reveal changes in intensity or size of oligomer band (lines 5, 6) | – | did not result in visible reduction/degradation of fibril smear or oligomer bands | strong prevention of aggregation of Aβ42 species, measured by THT; complete elimination Aβ42 monomers | –
3 | cathepsin L | – | – | – | – | Activation of 90 ng cathepsin A by cathepsin L
